To fix the notation:
B1: Composite human antibody variant VH5/VK3 (antibody, human IgG1, V domains shown)
VH: QVQLVQSGAEVKKPGASVKVSCTASGFNIKDTYIHWVRQARGQRLEWIGRFDPVNVNTRYDSRFRGRVTITSDASTSTAYMELSSLRSEDTAVYYCSRSYYNGRRRFTYWGQGTLVTVSS
VL: DIVMTQSPSSLTASVGDRVTITCKASQSLLSSGNQKNYLTWYQQKPGQPPKLLIYWASIRESGVPDRFSGSGSGTDFTLTISSLQAEDVAVYYCQNDYNYPFTFGQGTKLEIK
B2: Composite human antibody variant VH1/VK1 (antibody, V domains shown)
VH: B1 VH with Q1E, V11L, R41P, V68A, S77N
VL: B1 VL with S9D, A13V, V15L, D17E, V19A, T22N, S69T, D76F
B3: Composite human antibody variant VH2/VK3 (antibody, human IgG1, V domains shown)
VH: B1 VH with Q1E, V68A, S77N
VL: B1 VL
B4: Composite human antibody variant VH3/VK3 (antibody, human IgG1, V domains shown)
VH: B1 VH with V68A, S77N
VL: B1 VL
B5: Composite human antibody variant VH4/VK3 (antibody, human IgG1, V domains shown)
VH: B1 VH with S77N
VL: B1 VL
B6: Composite human antibody variant VH1/VK3 (antibody, human IgG1, V domains shown)
VH: B1 VH with Q1E, V11L, R41P, V68A, S77N
VL: B1 VL
B7: Composite human antibody variant VH2/VK2 (antibody, human IgG1, V domains shown)
VH: B1 VH with Q1E, V68A, S77N
VL: B1 VL with S69T, D76F

Changes are numbered by the printed parent chain.

In the test the target is Abeta42 beta amyloid peptide (UniProt P05067). Briefly: competition ELISA, NS0 supernatant titrated against 0.25 ug/ml biotinylated mouse 6E10 (mouse MDT-2007) on coated beta amyloid; IC50 normalised to mouse 6E10 (=1; <1 improved). In general terms: In an ELISA, binding on a coated surface is turned into a signal by an enzyme label.
Abeta42 beta amyloid peptide, sequence (P05067 672-713 limits assumed): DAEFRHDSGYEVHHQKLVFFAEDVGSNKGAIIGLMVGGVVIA
As to B1, the fold difference in IC50 relative to mouse 6E10 was determined as 1.02 fold.

In the case of B2, the fold difference in IC50 relative to mouse 6E10 amounted to 0.78 fold.

For the molecule B3, the fold difference in IC50 relative to mouse 6E10 amounted to 0.96 fold.

On to B4, for which the fold difference in IC50 relative to mouse 6E10 turned out to be 1.57 fold.

Take B5: the fold difference in IC50 relative to mouse 6E10 was 1.36 fold.

For the molecule B6, the fold difference in IC50 relative to mouse 6E10 worked out at 1.93 fold.

On to B7, for which the fold difference in IC50 relative to mouse 6E10 was 1.1 fold.
